Molecular target: the molecule itself
Test: native PAGE, self-association
Protocol: Native polyacrylamide gel electrophoresis (PAGE) was performed by use of the MINI PROTEAN® 3 electrophoresis cell and a discontinuous buffer system (Ornstein-Davis) according to the standard procedures given by the manufacturer (Bio-Rad Laboratories). Using native PAGE, pure canine S100A12 was evaluated in the presence of 0.3 mM Ca²⁺, 3 mM Ca²⁺, 10 mM Ca²⁺, and 10 mM EGTA.

B1: canine S100A12 (other)
chain: TKLEDHLEGIVDVFHRYSARVGHPDTLSKGEMKQLIIRELPNTLKNTKDQATVDKLFQDLDADKDGQVNFNEFISLVSVVLDTSHKNTHK
notes: Purified from canine leukocytes; Runs as a non-covalent homodimer on native PAGE; In the RIA the tracer is 125I-labelled; In serum and fecal extracts it is the native protein; also called calgranulin C; EN-RAGE
Does B1 bind?
Result: binds

Reference: patent publication US20110287458A1 (TEXAS A AND M UNIVERSITY SYSTEM, published 2011)
